The results in this text go back to US20200155602A1 (IMMATICS BIOTECHNOLOGIES, published 2020).

The target in this experiment is T1, HLA-A*02:01 (human).
T1 construct: Peptide-receptive HLA-A*02:01 monomer obtained by UV cleavage of a UV-sensitive ligand; captured on streptavidin plates; also called peptide-receptive MHC molecules; MHC class I
The experiment can be described thus: UV-ligand exchange, anti-b2m ELISA; grade of peptide exchange yield (>10% = +; >20% = ++; >50 = +++; >75% = ++++). The text has this: Candidate peptides for T cell based therapies according to the present invention were further tested for their MHC binding capacity (affinity). The individual peptide-MHC complexes were produced by UV-ligand exchange, where a UV-sensitive peptide is cleaved upon UV-irradiation, and exchanged with the peptide of interest as analyzed. Only peptide candidates that can effectively bind and stabilize the peptide-receptive MHC molecules prevent dissociation of the MHC complexes. To determine the yield of the exchange reaction, an ELISA was performed based on the detection of the light chain (β2m) of stabilized MHC complexes. The assay was performed as generally described in Rodenko et al. (Rodenko et al., 2006).
96 well MAXISorp plates (NUNC) were coated over night with 2 ug/ml streptavidin in PBS at room temperature, washed 4× and blocked for 1 h at 37° C. in 2% BSA containing blocking buffer. Refolded HLA-A*02:01/MLA-001 monomers served as standards, covering the range of 15-500 ng/ml. Peptide-MHC monomers of the UV-exchange reaction were diluted 100-fold in blocking buffer. Samples were incubated for 1 h at 37° C., washed four times, incubated with 2 ug/ml HRP conjugated anti-β2m for 1 h at 37° C., washed again and detected with TMB solution that is stopped with […]. Absorption was measured at 450 nm. Candidate peptides that show a high exchange yield (preferably higher than 50%, most preferred higher than 75%) are generally preferred for a generation and production of antibodies or fragments thereof, and/or T cell receptors or fragments thereof, as they show sufficient avidity to the MHC molecules and prevent dissociation of the MHC complexes.
In general terms: ELISA stands for enzyme-linked immunosorbent assay.

B1: TLASLGYAVV (peptide)
peptide: TLASLGYAVV
Turning to B1, the peptide exchange yield lay in the range of 50 to 75%.

B2: AILGFALSEA (peptide)
peptide: AILGFALSEA
As for B2, the peptide exchange yield is > 75%.

B3: SLVSYLDKV (peptide)
peptide: SLVSYLDKV
As for B3, the peptide exchange yield was > 75%.

B4: VLNVGVAEV (peptide)
peptide: VLNVGVAEV
The molecule B4 had a peptide exchange yield of 50 to 75%.

B5: SLGNFKDDLL (peptide)
peptide: SLGNFKDDLL
In turn, B5 returned a peptide exchange yield of 50 to 75%.

B6: VCPPGGIQEV (peptide)
peptide: VCPPGGIQEV
In turn, B6 yielded a peptide exchange yield of 50 to 75%.

B7: GLGDDSFPI (peptide)
peptide: GLGDDSFPI
B7: the peptide exchange yield was > 75%.

B8: ALSNVVHKV (peptide)
peptide: ALSNVVHKV
For the molecule B8, the peptide exchange yield was > 75%.

B9: YLQNEVFGL (peptide)
peptide: YLQNEVFGL
B9 had a peptide exchange yield of 50 to 75%.

B10: RLNGEGVGQVNISV (peptide)
peptide: RLNGEGVGQVNISV
On to B10, for which the peptide exchange yield was 20 to 50%.

B11: YLYPDLSRL (peptide)
peptide: YLYPDLSRL
B11: the peptide exchange yield was > 75%.

B12: ALAKLLPLL (peptide)
peptide: ALAKLLPLL
B12: the peptide exchange yield is > 75%.

B13: SLCPPGGIQEV (peptide)
peptide: SLCPPGGIQEV
As to B13, the peptide exchange yield is > 75%.

B14: VLFSSPPVI (peptide)
peptide: VLFSSPPVI
Take B14: the peptide exchange yield is > 75%.

B15: AIYEGVGWNV (peptide)
peptide: AIYEGVGWNV
Consider B15, for which the peptide exchange yield was > 75%.

B16: LLTPLNLQI (peptide)
peptide: LLTPLNLQI
In turn, B16 had a peptide exchange yield of 50 to 75%.

B17: TLTDEINFL (peptide)
peptide: TLTDEINFL
With B17, the peptide exchange yield is > 75%.

B18: LLIAINPQV (peptide)
peptide: LLIAINPQV
Regarding B18, the peptide exchange yield is > 75%.

B19: KLPEPCPSTV (peptide)
peptide: KLPEPCPSTV
In the case of B19, the peptide exchange yield lay within 50 to 75%.

B20: YLWEAHTNI (peptide)
peptide: YLWEAHTNI
On to B20, for which the peptide exchange yield was > 75%.

B21: SLSDIQPCL (peptide)
peptide: SLSDIQPCL
B21 registered a peptide exchange yield of 50 to 75%.

B22: GLISSIEAQL (peptide)
peptide: GLISSIEAQL
B22: the peptide exchange yield is > 75%.

B23: FVAGYIAGV (peptide)
peptide: FVAGYIAGV
As for B23, the peptide exchange yield is > 75%.

B24: SLPESGLLSV (peptide)
peptide: SLPESGLLSV
As for B24, the peptide exchange yield lay within 50 to 75%.

B25: FLHEPFSSV (peptide)
peptide: FLHEPFSSV
Consider B25, for which the peptide exchange yield is > 75%.

B26: GLWSSIFSL (peptide)
peptide: GLWSSIFSL
B26: the peptide exchange yield was > 75%.

B27: LLFTGLVSGV (peptide)
peptide: LLFTGLVSGV
Molecule B27 displayed a peptide exchange yield of 50 to 75%.

B28: FLQLETEQV (peptide)
peptide: FLQLETEQV
For B28, the peptide exchange yield was > 75%.

B29: RLSGEGVGPV (peptide)
peptide: RLSGEGVGPV
The molecule B29 returned a peptide exchange yield of 50 to 75%.

B30: HLATVKLLV (peptide)
peptide: HLATVKLLV
For B30, the peptide exchange yield is > 75%.

B31: IQDAEGAIHEV (peptide)
peptide: IQDAEGAIHEV
For the molecule B31, the peptide exchange yield is > 75%.

B32: LLPEDDTRDNV (peptide)
peptide: LLPEDDTRDNV
As to B32, the peptide exchange yield lay within 50 to 75%.

B33: SLYGLGGSKRISI (peptide)
peptide: SLYGLGGSKRISI
For the molecule B33, the peptide exchange yield lay in the range of 50 to 75%.

B34: ALKDSVQRA (peptide)
peptide: ALKDSVQRA
In turn, B34 returned a peptide exchange yield of 50 to 75%.

B35: ALVGDVILTV (peptide)
peptide: ALVGDVILTV
Consider B35, for which the peptide exchange yield is > 75%.

B36: AVDPVSGSLYV (peptide)
peptide: AVDPVSGSLYV
Take B36: the peptide exchange yield was > 75%.

B37: YLINEIDRIRA (peptide)
peptide: YLINEIDRIRA
For the molecule B37, the peptide exchange yield was > 75%.

B38: SMLNNIINL (peptide)
peptide: SMLNNIINL
Take B38: the peptide exchange yield fell in the range of 50 to 75%.

B39: FLIPSIIFA (peptide)
peptide: FLIPSIIFA
As for B39, the peptide exchange yield was > 75%.

B40: ALYDAELSQM (peptide)
peptide: ALYDAELSQM
Take B40: the peptide exchange yield lay within 50 to 75%.

B41: GLAGGFGGPGFPV (peptide)
peptide: GLAGGFGGPGFPV
In the case of B41, the peptide exchange yield is > 75%.

B42: QLLEGELETL (peptide)
peptide: QLLEGELETL
B42 returned a peptide exchange yield of 50 to 75%.

B43: ILDINDNPPV (peptide)
peptide: ILDINDNPPV
In the case of B43, the peptide exchange yield lay within 50 to 75%.

B44: VLDINDNPPV (peptide)
peptide: VLDINDNPPV
As for B44, the peptide exchange yield lay in the range of 50 to 75%.

B45: GLIEWLENTV (peptide)
peptide: GLIEWLENTV
As for B45, the peptide exchange yield is > 75%.

B46: ALDTFSVQV (peptide)
peptide: ALDTFSVQV
Take B46: the peptide exchange yield was > 75%.

B47: YLLDYPNNL (peptide)
peptide: YLLDYPNNL
B47 came in with a peptide exchange yield of 50 to 75%.

B48: ALYTSGHLL (peptide)
peptide: ALYTSGHLL
Regarding B48, the peptide exchange yield was > 75%.

B49: RLLPDLDEV (peptide)
peptide: RLLPDLDEV
B49: the peptide exchange yield is > 75%.

B50: SIWPALTQV (peptide)
peptide: SIWPALTQV
Take B50: the peptide exchange yield was > 75%.

B51: RLVEVGGDVQL (peptide)
peptide: RLVEVGGDVQL
As to B51, the peptide exchange yield was > 75%.

B52: ILSSACYTV (peptide)
peptide: ILSSACYTV
As for B52, the peptide exchange yield was > 75%.

B53: TLWPATPPKA (peptide)
peptide: TLWPATPPKA
B53: the peptide exchange yield fell in the range of 50 to 75%.

B54: KLLPGVQYV (peptide)
peptide: KLLPGVQYV
For B54, the peptide exchange yield is > 75%.

B55: ILLEDVFQL (peptide)
peptide: ILLEDVFQL
Take B55: the peptide exchange yield is > 75%.

B56: PVCPPGGIQEV (peptide)
peptide: PVCPPGGIQEV
Molecule B56 gave a peptide exchange yield of 50 to 75%.

B57: … (peptide)
peptide: TLVDENQSWYL
notes: also called TLVDENQSWYL
On to B57, for which the peptide exchange yield was 50 to 75%.

B58: RIMEGIPTV (peptide)
peptide: RIMEGIPTV
Regarding B58, the peptide exchange yield is > 75%.

B59: AVLGGKLYV (peptide)
peptide: AVLGGKLYV
B59: the peptide exchange yield is > 75%.

B60: YLAEPQWAV (peptide)
peptide: YLAEPQWAV
As to B60, the peptide exchange yield is > 75%.
